Results from article PMC3601957, “Structural Basis of Rap Phosphatase Inhibition by Phr Peptides” (PLoS Biology, 2013).

B1: RapF [B. subtilis] / PhrF [B. subtilis] (parent)
chain 1: MTGVISSSSIGEKINEWYMYIRRFSIPDAEYLRREIKQELDQMEEDQDLHLYYSLMEFRHNLMLEYLEPLEKMRIEEQPRLSDLLLEIDKKQARLTGLLEYYFNFFRGMYELDQREYLSAIKFFKKAESKLIFVKDRIEKAEFFFKMSESYYYMKQTYFSMDYARQAYEIYKEHEAYNIRLLQCHSLFATNFLDLKQYEDAISHFQKAYSMAEAEKQPQLMGRTLYNIGLCKNSQSQYEDAIPYFKRAIAVFEESNILPSLPQAYFLITQIHYKLGKIDKAHEYHSKGMAYSQKAGDVIYLSEFEFLKSLYLSGPDEEAIQGFFDFLESKMLYADLEDFAIDVAKYYHERKNFQKASAYFLKVEQVRQLIQGGVSLYEIEV
chain 2: QRGMI
B2: RapF [B. subtilis] / PhrC [B. subtilis] (parent)
chain 1: B1 chain 1
chain 2: ERGMT

Variants of: B1
Test: thermal-shift assay (Sypro orange fluorescence)
Conditions: with PhrF [B. subtilis], printed Tm without peptide: mutant 50.1 °C, wild type 49.5 °C
In the case of chain 1 MTGVISSSSIGEKINEWYMYIRRFSIPDAEYLRREIKQELDQMEEDQDLHLYYSLMEFRHNLMLEYLEPLEKMRIEEQPRLSDLLLEIDKKQARLTGLLEYYFNFFRGMYELDQREYLSAIKFFKKAESKLIFVKDRIEKAEFFFKMSESYYYMKQTYFSMDYARQAYEIYKEHEAYNIRLLQCHSLFATNFLDLKQYEDAISHFQKAYSMAEAEKQPQLMGRTLYAIGLCKNSQSQYEDAIPYFKRAIAVFEESNILPSLPQAYFLITQIHYKLGKIDKAHEYHSKGMAYSQKAGDVIYLSEFEFLKSLYLSGPDEEAIQGFFDFLESKMLYADLEDFAIDVAKYYHERKNFQKASAYFLKVEQVRQLIQGGVSLYEIEV [chain 1 N227A], the screen value is reported as 49.2 °C.

Same assay, conditions: with PhrF [B. subtilis], printed Tm without peptide: mutant 53.4 °C, wild type 49.5 °C
chain 1 MTGVISSSSIGEKINEWYMYIRRFSIPDAEYLRREIKQELDQMEEDQDLHLYYSLMEFRHNLMLEYLEPLEKMRIEEQPRLSDLLLEIDKKQARLTGLLEYYFNFFRGMYELDQREYLSAIKFFKKAESKLIFVKDRIEKAEFFFKMSESYYYMKQTYFSMDYARQAYEIYKEHEAYNIRLLQCHSLFATNFLALKQYEDAISHFQKAYSMAEAEKQPQLMGRTLYNIGLCKNSQSQYEDAIPYFKRAIAVFEESNILPSLPQAYFLITQIHYKLGKIDKAHEYHSKGMAYSQKAGDVIYLSEFEFLKSLYLSGPDEEAIQGFFDFLESKMLYADLEDFAIDVAKYYHERKNFQKASAYFLKVEQVRQLIQGGVSLYEIEV [chain 1 D194A] was tested, and the screen value was 53.3 °C.

Variants of: B2
Test: thermal-shift assay (Sypro orange fluorescence)
Conditions: with PhrC [B. subtilis], printed Tm without peptide: mutant 51.3 °C, wild type 49.5 °C
Work on chain 1 MTGVISSSSIGEKINEWYMYIRRFSIPDAEYLRREIKQELDQMEEDQDLHLYYSLMEFRHNLMLEYLEPLEKMRIEEQPRLSDLLLEIDKKQARLTGLLEYYFNFFRGMYELDQREYLSAIKFFKKAESKLIFVKDRIEKAEFFFKMSESYYYMKQTYFSMDYARQAYEIYKEHEAYNIRLLQCHSLFATNFLDLKQYEDAISHFQKAYSMAEAEKQPQLMGRTLYNIGLCKNSQSQYEDAIPYFKRAIAVFEESNILPSLPQAYFLITQIHYKLGKIDKAHEYHSKGMAYSQKAGDVIYLSAFEFLKSLYLSGPDEEAIQGFFDFLESKMLYADLEDFAIDVAKYYHERKNFQKASAYFLKVEQVRQLIQGGVSLYEIEV [chain 1 E303A] yielded a screen value of 53.8 °C.

Same assay, conditions: with PhrC [B. subtilis], printed Tm without peptide: mutant 53.4 °C, wild type 49.5 °C
For chain 1 MTGVISSSSIGEKINEWYMYIRRFSIPDAEYLRREIKQELDQMEEDQDLHLYYSLMEFRHNLMLEYLEPLEKMRIEEQPRLSDLLLEIDKKQARLTGLLEYYFNFFRGMYELDQREYLSAIKFFKKAESKLIFVKDRIEKAEFFFKMSESYYYMKQTYFSMDYARQAYEIYKEHEAYNIRLLQCHSLFATNFLALKQYEDAISHFQKAYSMAEAEKQPQLMGRTLYNIGLCKNSQSQYEDAIPYFKRAIAVFEESNILPSLPQAYFLITQIHYKLGKIDKAHEYHSKGMAYSQKAGDVIYLSEFEFLKSLYLSGPDEEAIQGFFDFLESKMLYADLEDFAIDVAKYYHERKNFQKASAYFLKVEQVRQLIQGGVSLYEIEV [chain 1 D194A], the screen value was 52.3 °C.

Same assay, conditions: with PhrC [B. subtilis], printed Tm without peptide: mutant 50.1 °C, wild type 49.5 °C
For chain 1 MTGVISSSSIGEKINEWYMYIRRFSIPDAEYLRREIKQELDQMEEDQDLHLYYSLMEFRHNLMLEYLEPLEKMRIEEQPRLSDLLLEIDKKQARLTGLLEYYFNFFRGMYELDQREYLSAIKFFKKAESKLIFVKDRIEKAEFFFKMSESYYYMKQTYFSMDYARQAYEIYKEHEAYNIRLLQCHSLFATNFLDLKQYEDAISHFQKAYSMAEAEKQPQLMGRTLYAIGLCKNSQSQYEDAIPYFKRAIAVFEESNILPSLPQAYFLITQIHYKLGKIDKAHEYHSKGMAYSQKAGDVIYLSEFEFLKSLYLSGPDEEAIQGFFDFLESKMLYADLEDFAIDVAKYYHERKNFQKASAYFLKVEQVRQLIQGGVSLYEIEV [chain 1 N227A], the screen value was 49.2 °C.
